We go through four molecules from article PMC8880714, “Antimicrobial effect and mechanism of bovine lactoferrin against the potato common scab pathogen Streptomyces scabiei” (PLoS ONE, 2022).

Test [1] deals with Streptomyces scabiei S58. Put plainly: microbe, parasite or virus in culture. In kind it is cell-based. Particulars: TSB, 28 °C, 72 h, absorbance 600 nm; for IC50: S. scabiei S58 spores 2 × 10^5/mL, probit analysis, mean ± SD, n = 3, read-out: Antimicrobial activity (IC50). Here is the method:
S. scabiei S58, isolated from potatoes grown in Kagoshima, Japan, was used in this study. […] For antimicrobial assays, the spores of the isolate were incubated at 28 °C in tryptic soy broth (TSB) (Becton Dickinson, Sparks, USA). Escherichia coli strains JM109 and BL21(λDE3) were grown at 37 °C in Luria-Bertani broth supplemented with 100 μg/mL ampicillin for propagation.
(§1) A 12-well plate was used to assess the antimicrobial activity of LF, hydrolysate, LFcinB, and synthetic peptides. One milliliter of TSB containing each test substance was added to each well and then the spores of S. scabiei S58, prepared as described above, were added into each well at a final concentration of 2 × 10^5 spores/mL. The mixture was incubated at 28 °C for 72 h, and the absorbance was measured at 600 nm to monitor bacterial growth. To further confirm whether the antimicrobial activity is due to growth inhibition or bactericidal effect, 1 mL of TSB containing 2 ×10^3 spores and bLF (1 mg/mL) was incubated at 28 °C and directly cultured on STA after 5, 10, 15, 24, 48, and 72 h of incubation to count the emerging colonies. All assays were performed in duplicate and were repeated three times.

The test system of test [2] is Streptomyces scabiei S58. The test is described as follows: Bactericidal effect assay: colony counting on starch agar after treatment. In kind it is cell-based. The settings on record: bLF 1 mg/mL, 2 × 10^3 spores in 1 mL TSB, 28 °C. As for the experimental part:
as §1
Fig 3 Bactericidal effect of bovine-derived lactoferrin (bLF) (A) and minimal inhibitory concentration (MIC) of bLF (B) on Streptomyces scabiei S58. For the assay of bactericidal effect, the mixture of bLF and spores (2 × 10^3/mL) was incubated at 28 °C and directly cultured on starch agar in a time-dependent manner. The number of colonies emerging on the plates was counted. For the MIC assay, the mixture of bLF and spores (2 × 10^5/mL) was incubated at 28 °C for 72 h in tryptic soy broth and the absorbance was measured at 600 nm to monitor bacterial growth. […]

B1: Human lactoferrin (hLF): Human-derived lactoferrin purchased from FUJIFILM Wako (protein, UniProt P02788 20-710, looked up)
Lactotransferrin: GRRRSVQWCAVSQPEATKCFQWQRNMRKVRGPPVSCIKRDSPIQCIQAIAENRADAVTLDGGFIYEAGLAPYKLRPVAAEVYGTERQPRTHYYAVAVVKKGGSFQLNELQGLKSCHTGLRRTAGWNVPIGTLRPFLNWTGPPEPIEAAVARFFSASCVPGADKGQFPNLCRLCAGTGENKCAFSSQEPYFSYSGAFKCLRDGAGDVAFIRESTVFEDLSDEAERDEYELLCPDNTRKPVDKFKDCHLARVPSHAVVARSVNGKEDAIWNLLRQAQEKFGKDKSPKFQLFGSPSGQKDLLFKDSAIGFSRVPPRIDSGLYLGSGYFTAIQNLRKSEEEVAARRARVVWCAVGEQELRKCNQWSGLSEGSVTCSSASTTEDCIALVLKGEADAMSLDGGYVYTAGKCGLVPVLAENYKSQQSSDPDPNCVDRPVEGYLAVAVVRRSDTSLTWNSVKGKKSCHTAVDRTAGWNIPMGLLFNQTGSCKFDEYFSQSCAPGSDPRSNLCALCIGDEQGENKCVPNSNERYYGYTGAFRCLAENAGDVAFVKDVTVLQNTDGNNNEAWAKDLKLADFALLCLDGKRKPVTEARSCHLAMAPNHAVVSRMDKVERLKQVLLHQQAKFGRNGSDCPDKFCLFQSETKNLLFNDNTECLARLHGKTTYEKYLGPQYVAGITNLKKCSTSPLLEACEFLRK
As for B1, the IC50 (in general, the concentration needed to halve the response being measured) in the test with Streptomyces scabiei S58 [1] amounted to 138000 ± 7960 nM.

B2: Bovine lactoferrin (bLF): Bovine-derived lactoferrin purchased from FUJIFILM Wako (protein, UniProt P24627 20-708, looked up)
Lactotransferrin: APRKNVRWCTISQPEWFKCRRWQWRMKKLGAPSITCVRRAFALECIRAIAEKKADAVTLDGGMVFEAGRDPYKLRPVAAEIYGTKESPQTHYYAVAVVKKGSNFQLDQLQGRKSCHTGLGRSAGWIIPMGILRPYLSWTESLEPLQGAVAKFFSASCVPCIDRQAYPNLCQLCKGEGENQCACSSREPYFGYSGAFKCLQDGAGDVAFVKETTVFENLPEKADRDQYELLCLNNSRAPVDAFKECHLAQVPSHAVVARSVDGKEDLIWKLLSKAQEKFGKNKSRSFQLFGSPPGQRDLLFKDSALGFLRIPSKVDSALYLGSRYLTTLKNLRETAEEVKARYTRVVWCAVGPEEQKKCQQWSQQSGQNVTCATASTTDDCIVLVLKGEADALNLDGGYIYTAGKCGLVPVLAENRKSSKHSSLDCVLRPTEGYLAVAVVKKANEGLTWNSLKDKKSCHTAVDRTAGWNIPMGLIVNQTGSCAFDEFFSQSCAPGADPKSRLCALCAGDDQGLDKCVPNSKEKYYGYTGAFRCLAEDVGDVAFVKNDTVWENTNGESTADWAKNLNREDFRLLCLDGTRKPVTEAQSCHLAVAPNHAVVSRSDRAAHVKQVLLHQQALFGKNGKNCPDKFCLFKSETKNLLFNDNTECLAKLGGRPTYEEYLGTEYVTAIANLKKCSTSPLLEACAFLTR
With B2, the “Number of colonies after treatment, at 5 h” value with Streptomyces scabiei S58 [2] (plated on starch agar after 5 h) was “sharp decrease in the number of colonies”. Further, the “Number of colonies after treatment, at 48 h” value in the test on Streptomyces scabiei S58 [2] (plated on starch agar after 48 h) is recorded as “only a few colonies remained”. In addition, the IC50 with Streptomyces scabiei S58 [1] was 458 ± 74 nM. The “Minimal inhibitory concentration (no growth observed at this concentration and above)” value with Streptomyces scabiei S58 [1] (spores 2 × 10^5/mL) amounted to 3.9 µM.

B3: Holo-bLF: Iron-saturated (holo) bLF, iron saturation 95.5% (protein, UniProt P24627 20-708, looked up)
Lactotransferrin: B2 Lactotransferrin
modifications: iron-saturated (holo)
For the molecule B3, the half-maximal inhibitory concentration (IC50) in the test with Streptomyces scabiei S58 [1] is 2180 ± 428 nM.

B4: Apo-bLF: Iron-depleted (apo) bLF, iron saturation 0.35% (protein, UniProt P24627 20-708, looked up)
Lactotransferrin: B2 Lactotransferrin
modifications: iron-depleted (apo)
With B4, in the test with Streptomyces scabiei S58 [1], the IC50 is 2390 ± 203 nM.
